This note sets out measurements from PMC11024442, “Lipocalin-type prostaglandin D synthase: a glymphopathy marker in idiopathic hydrocephalus” (Frontiers in Aging Neuroscience, 2024).

In the experiment the target is T1, human recombinant Tau-441 (human, UniProt P10636-8 1-441).
T1 construct: Commercial recombinant protein; source: bought: WAKO
Kind of experiment: SPR; Biacore 2000; recombinant human Δ1–22 L-PGDS amine-coupled to a CM5 chip; Tau-441 flowed at 3, 2 and 1 nM; dissociation on washing with Dulbecco's phosphate-buffered saline; Kd from the sensorgrams with BIAevaluation 3.1. The settings on record: both partners purified.

T1 sequence (P10636 other isoform, or with tags, fused parts or gaps): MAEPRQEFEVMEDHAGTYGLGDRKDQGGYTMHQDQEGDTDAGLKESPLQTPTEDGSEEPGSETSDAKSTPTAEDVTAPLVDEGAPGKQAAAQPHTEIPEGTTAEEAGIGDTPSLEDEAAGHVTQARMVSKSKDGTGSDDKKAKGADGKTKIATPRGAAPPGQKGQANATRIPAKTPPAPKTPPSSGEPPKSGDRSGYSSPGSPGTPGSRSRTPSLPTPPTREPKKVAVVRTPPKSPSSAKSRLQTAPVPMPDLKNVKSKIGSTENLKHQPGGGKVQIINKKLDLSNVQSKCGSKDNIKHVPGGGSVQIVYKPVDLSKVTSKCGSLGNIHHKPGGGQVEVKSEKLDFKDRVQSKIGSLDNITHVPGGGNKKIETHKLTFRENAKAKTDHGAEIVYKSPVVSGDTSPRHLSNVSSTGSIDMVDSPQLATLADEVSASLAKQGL

B1: human recombinant Δ1–22 L-PGDS (lipocalin-type prostaglandin D synthase without the signal sequence) (enzyme, UniProt P41222 23-190, looked up)
chain: APEAQVSVQPNFQQDKFLGRWFSAGLASNSSWLREKKAALSMCKSVVAPATDGGLNLTSTFLRKNQCETRTMLLQPAGSLGSYSYRSPHWGSTYSVSVVETDYDQYALLYSQGSKGPGEDFRMATLYSRTQTPRAELKEKFTAFCKAQGFTEDTIVFLPQTDKCMTEQ
notes: Cloned into pGEX-2T as a GST fusion and cut with thrombin; also called recombinant human ∆1–22 L-PGDS; recombinant human L-PGDS; source: E. coli BL21 (DE3), purified (glutathione-Sepharose 4B, thrombin digestion, gel filtration on HiLoad Superdex 75)
By Kd is commonly meant a measure of binding affinity in units of concentration. On to B1, for which the Kd turned out to be 910 µM.
